Target: human FAM19A5-Fc protein (Lot# 170815) (human, UniProt Q7Z5A7 44-132)
Test: cell-based or functional assay

human FAM19A5-Fc protein (Lot# 170815), sequence (Q7Z5A7 other isoform, or with tags, fused parts or gaps): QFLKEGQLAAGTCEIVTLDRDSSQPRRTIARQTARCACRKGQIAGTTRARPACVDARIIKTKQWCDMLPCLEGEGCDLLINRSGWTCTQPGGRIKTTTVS

IC50 for inhibition of the FAM19A5-Fc-enhanced TNF-α production by LPS-stimulated BV2 cells (mouse TNF-α ELISA): 11.5 µg/mL
B1: anti-FAM19A5 antibody (clone "1-30"; Lot# A5m180831) (antibody, V domains shown)
VH: AVTLDESGGGLQTPGGALRLSCKASGFDFESFNMFWVRQAPGKGLEYVSQISSSEEDENYAPAVKGRATISRDNGQSTLYLQMNSLRAEDTGTYYCAKSSYDCPYGHCSSGVDSAGEIDAWGHGTEVIVSS
VL: ALTQPSSVSANPGETVKITCSGGGSEEEQYYYGWYQQKPGSAPVTLIYQDEERPSDIPSRFSGSTSGSTATLTITGVQAGDEADYYCGSWDSEDEDHFGAGTTLTVL

From patent publication US20220064277A1 (NEURACLE SCIENCE, published 2022)
